Source: PMC4303003, “Repressive mutations restore function-loss caused by the disruption of trimerization in Escherichia coli multidrug transporter AcrB” (Frontiers in Microbiology, 2015)

Target: the molecule itself
Assay: native gel or EMSA; BN-PAGE of purified AcrB proteins; loading buffer with 1% dodecylmaltoside, 0.1% Coomassie G-250, pH 7.0; 4-15% gradient gel, 15 mA, 4°C, 2 h; trimer and monomer bands quantified with ImageJ; trimer to monomers

B1: wild type AcrB (Escherichia coli multidrug transporter AcrB) (natural protein)
chain: MPNFFIDRPIFAWVIAIIIMLAGGLAILKLPVAQYPTIAPPAVTISASYPGADAKTVQDTVTQVIEQNMNGIDNLMYMSSNSDSTGTVQITLTFESGTDADIAQVQVQNKLQLAMPLLPQEVQQQGVSVEKSSSSFLMVVGVINTDGTMTQEDISDYVAANMKDAISRTSGVGDVQLFGSQYAMRIWMNPNELNKFQLTPVDVITAIKAQNAQVAAGQLGGTPPVKGQQLNASIIAQTRLTSTEEFGKILLKVNQDGSRVLLRDVAKIELGGENYDIIAEFNGQPASGLGIKLATGANALDTAAAIRAELAKMEPFFPSGLKIVYPYDTTPFVKISIHEVVKTLVEAIILVFLVMYLFLQNFRATLIPTIAVPVVLLGTFAVLAAFGFSINTLTMFGMVLAIGLLVDDAIVVVENVERVMAEEGLPPKEATRKSMGQIQGALVGIAMVLSAVFVPMAFFGGSTGAIYRQFSITIVSAMALSVLVALILTPALCATMLKPIAKGDHGEGKKGFFGWFNRMFEKSTHHYTDSVGGILRSTGRYLVLYLIIVVGMAYLFVRLPSSFLPDEDQGVFMTMVQLPAGATQERTQKVLNEVTHYYLTKEKNNVESVFAVNGFGFAGRGQNTGIAFVSLKDWADRPGEENKVEAITMRATRAFSQIKDAMVFAFNLPAIVELGTATGFDFELIDQAGLGHEKLTQARNQLLAEAAKHPDMLTSVRPNGLEDTPQFKIDIDQEKAQALGVSINDINTTLGAAWGGSYVNDFIDRGRVKKVYVMSEAKYRMLPDDIGDWYVRAADGQMVPFSAFSSSRWEYGSPRLERYNGLPSMEILGQAAPGKSTGEAMELMEQLASKLPTGVGYDWTGMSYQERLSGNQAPSLYAISLIVVFLCLAALYESWSIPFSVMLVVPLGVIGALLAATFRGLTNDVYFQVGLLTTIGLSAKNAILIVEFAKDLMDKEGKGLIEATLDAVRMRLRPILMTSLAFILGVMPLVISTGAGSGAQNAVGTGVMGGMVTATVLAIFFVPVFFVVVRRRFSRKNEDIEHSHTVDHH
notes: AcrB, inner membrane RND multidrug transporter of Escherichia coli, encoded on plasmid pQE70-AcrB; also called WT AcrB; WT; source: E. coli BW25113ΔacrB transformed with pQE70-AcrB (in cells for cross-linking); purified as described (Lu et al., 2011) for BN-PAGE
B1: binds.
